Results published in paper PMC5656587, “Structure determination and activity manipulation of the turfgrass ABA receptor FePYR1” (Scientific Reports, 2017).

T1: biotin-MBP-tagged AtHAB1 (residues 172-511), Q9CAJ0
T1 chain: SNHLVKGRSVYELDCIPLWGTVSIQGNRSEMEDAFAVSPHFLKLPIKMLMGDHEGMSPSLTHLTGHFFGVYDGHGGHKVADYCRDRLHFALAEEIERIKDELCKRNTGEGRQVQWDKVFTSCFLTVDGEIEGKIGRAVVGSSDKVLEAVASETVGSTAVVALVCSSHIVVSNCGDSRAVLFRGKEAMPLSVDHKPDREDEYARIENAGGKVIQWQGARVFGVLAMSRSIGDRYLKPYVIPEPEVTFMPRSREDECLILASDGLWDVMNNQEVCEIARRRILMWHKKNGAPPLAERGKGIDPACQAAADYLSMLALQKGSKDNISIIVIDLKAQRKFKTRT


Biological target: T1, biotin-MBP-tagged AtHAB1 (residues …)
Assay: AlphaScreen
Conditions: chain shown with the change, read off a plot
[1] = ABA (10 μM), parent: est. 12000
[2] = ABA (100 μM), parent: est. 8400
[3] = DMSO (no ABA), parent: est. 2200

response (photon counts) (ABA (2 μM), parent: est. 6900)	response (photon counts) [1]	response (photon counts) [2]	response (photon counts) (ABA (5 μM), parent: est. 17000)	response (photon counts) [3]	Binder
			18000	2300	H6-SUMO-tagged FePYR1 L185A (protein) MEQQPAAAEPEVPAGLGLTAAEYAELQPTVEAYHRYAVGPGQCSSLVAQRIEAPAAAVWAIVRRFDCPQVYKHFIRSCALRPDPDAGDELRPGRLREVSVISGLPASTSTERLDLLDDARRAFGFTITGGEHRLANYRSVTTVSELAPAAPAKICTVVLESYVVDVPEGNSEEDTRLFADTVVRANLQKLKSLAEANATSAAAQATPPPQAE
1200	3900	5800			H6-SUMO-tagged FePYR1 N186A (protein) MEQQPAAAEPEVPAGLGLTAAEYAELQPTVEAYHRYAVGPGQCSSLVAQRIEAPAAAVWAIVRRFDCPQVYKHFIRSCALRPDPDAGDELRPGRLREVSVISGLPASTSTERLDLLDDARRAFGFTITGGEHRLANYRSVTTVSELAPAAPAKICTVVLESYVVDVPEGNSEEDTRLFADTVVRLALQKLKSLAEANATSAAAQATPPPQAE
		2500			H6-SUMO-tagged FePYR1 L104A (protein) MEQQPAAAEPEVPAGLGLTAAEYAELQPTVEAYHRYAVGPGQCSSLVAQRIEAPAAAVWAIVRRFDCPQVYKHFIRSCALRPDPDAGDELRPGRLREVSVISGAPASTSTERLDLLDDARRAFGFTITGGEHRLANYRSVTTVSELAPAAPAKICTVVLESYVVDVPEGNSEEDTRLFADTVVRLNLQKLKSLAEANATSAAAQATPPPQAE
			3300	2000	H6-SUMO-tagged FePYR1 V182L (protein) MEQQPAAAEPEVPAGLGLTAAEYAELQPTVEAYHRYAVGPGQCSSLVAQRIEAPAAAVWAIVRRFDCPQVYKHFIRSCALRPDPDAGDELRPGRLREVSVISGLPASTSTERLDLLDDARRAFGFTITGGEHRLANYRSVTTVSELAPAAPAKICTVVLESYVVDVPEGNSEEDTRLFADTLVRLNLQKLKSLAEANATSAAAQATPPPQAE
1400	3300	5700			H6-SUMO-tagged FePYR1 P105A (protein) MEQQPAAAEPEVPAGLGLTAAEYAELQPTVEAYHRYAVGPGQCSSLVAQRIEAPAAAVWAIVRRFDCPQVYKHFIRSCALRPDPDAGDELRPGRLREVSVISGLAASTSTERLDLLDDARRAFGFTITGGEHRLANYRSVTTVSELAPAAPAKICTVVLESYVVDVPEGNSEEDTRLFADTVVRLNLQKLKSLAEANATSAAAQATPPPQAE
600	2300	3900			H6-SUMO-tagged FePYR1 R133A (protein) MEQQPAAAEPEVPAGLGLTAAEYAELQPTVEAYHRYAVGPGQCSSLVAQRIEAPAAAVWAIVRRFDCPQVYKHFIRSCALRPDPDAGDELRPGRLREVSVISGLPASTSTERLDLLDDARRAFGFTITGGEHALANYRSVTTVSELAPAAPAKICTVVLESYVVDVPEGNSEEDTRLFADTVVRLNLQKLKSLAEANATSAAAQATPPPQAE

Further lines, the binder ahead of its results:

Binder	response (photon counts) (ABA (2 μM), parent: est. 6900)	response (photon counts) [1]	response (photon counts) [2]	response (photon counts) (ABA (5 μM), parent: est. 17000)	response (photon counts) [3]
H6-SUMO-tagged FePYR1 E131A (protein) MEQQPAAAEPEVPAGLGLTAAEYAELQPTVEAYHRYAVGPGQCSSLVAQRIEAPAAAVWAIVRRFDCPQVYKHFIRSCALRPDPDAGDELRPGRLREVSVISGLPASTSTERLDLLDDARRAFGFTITGGAHRLANYRSVTTVSELAPAAPAKICTVVLESYVVDVPEGNSEEDTRLFADTVVRLNLQKLKSLAEANATSAAAQATPPPQAE	4100	8000	7500		
H6-SUMO-tagged FePYR1 H132A (protein) MEQQPAAAEPEVPAGLGLTAAEYAELQPTVEAYHRYAVGPGQCSSLVAQRIEAPAAAVWAIVRRFDCPQVYKHFIRSCALRPDPDAGDELRPGRLREVSVISGLPASTSTERLDLLDDARRAFGFTITGGEARLANYRSVTTVSELAPAAPAKICTVVLESYVVDVPEGNSEEDTRLFADTVVRLNLQKLKSLAEANATSAAAQATPPPQAE			650		
H6-SUMO-tagged FePYR1 E160A (protein) MEQQPAAAEPEVPAGLGLTAAEYAELQPTVEAYHRYAVGPGQCSSLVAQRIEAPAAAVWAIVRRFDCPQVYKHFIRSCALRPDPDAGDELRPGRLREVSVISGLPASTSTERLDLLDDARRAFGFTITGGEHRLANYRSVTTVSELAPAAPAKICTVVLASYVVDVPEGNSEEDTRLFADTVVRLNLQKLKSLAEANATSAAAQATPPPQAE	2600	4900	9000		
H6-SUMO-tagged FePYR1 A106S (protein) MEQQPAAAEPEVPAGLGLTAAEYAELQPTVEAYHRYAVGPGQCSSLVAQRIEAPAAAVWAIVRRFDCPQVYKHFIRSCALRPDPDAGDELRPGRLREVSVISGLPSSTSTERLDLLDDARRAFGFTITGGEHRLANYRSVTTVSELAPAAPAKICTVVLESYVVDVPEGNSEEDTRLFADTVVRLNLQKLKSLAEANATSAAAQATPPPQAE			2100		
H6-SUMO-tagged FePYR1 K72A (protein) MEQQPAAAEPEVPAGLGLTAAEYAELQPTVEAYHRYAVGPGQCSSLVAQRIEAPAAAVWAIVRRFDCPQVYAHFIRSCALRPDPDAGDELRPGRLREVSVISGLPASTSTERLDLLDDARRAFGFTITGGEHRLANYRSVTTVSELAPAAPAKICTVVLESYVVDVPEGNSEEDTRLFADTVVRLNLQKLKSLAEANATSAAAQATPPPQAE			1200		
H6-SUMO-tagged FePYR1 I127V (protein) MEQQPAAAEPEVPAGLGLTAAEYAELQPTVEAYHRYAVGPGQCSSLVAQRIEAPAAAVWAIVRRFDCPQVYKHFIRSCALRPDPDAGDELRPGRLREVSVISGLPASTSTERLDLLDDARRAFGFTVTGGEHRLANYRSVTTVSELAPAAPAKICTVVLESYVVDVPEGNSEEDTRLFADTVVRLNLQKLKSLAEANATSAAAQATPPPQAE				17000	2200
H6-SUMO-tagged FePYR1 E131D (protein) MEQQPAAAEPEVPAGLGLTAAEYAELQPTVEAYHRYAVGPGQCSSLVAQRIEAPAAAVWAIVRRFDCPQVYKHFIRSCALRPDPDAGDELRPGRLREVSVISGLPASTSTERLDLLDDARRAFGFTITGGDHRLANYRSVTTVSELAPAAPAKICTVVLESYVVDVPEGNSEEDTRLFADTVVRLNLQKLKSLAEANATSAAAQATPPPQAE				18000	1900
H6-SUMO-tagged FePYR1 K72R (protein) MEQQPAAAEPEVPAGLGLTAAEYAELQPTVEAYHRYAVGPGQCSSLVAQRIEAPAAAVWAIVRRFDCPQVYRHFIRSCALRPDPDAGDELRPGRLREVSVISGLPASTSTERLDLLDDARRAFGFTITGGEHRLANYRSVTTVSELAPAAPAKICTVVLESYVVDVPEGNSEEDTRLFADTVVRLNLQKLKSLAEANATSAAAQATPPPQAE			1300		
H6-SUMO-tagged FePYR1 I75V (protein) MEQQPAAAEPEVPAGLGLTAAEYAELQPTVEAYHRYAVGPGQCSSLVAQRIEAPAAAVWAIVRRFDCPQVYKHFVRSCALRPDPDAGDELRPGRLREVSVISGLPASTSTERLDLLDDARRAFGFTITGGEHRLANYRSVTTVSELAPAAPAKICTVVLESYVVDVPEGNSEEDTRLFADTVVRLNLQKLKSLAEANATSAAAQATPPPQAE				16000	2100
H6-SUMO-tagged FePYR1 G103A (protein) MEQQPAAAEPEVPAGLGLTAAEYAELQPTVEAYHRYAVGPGQCSSLVAQRIEAPAAAVWAIVRRFDCPQVYKHFIRSCALRPDPDAGDELRPGRLREVSVISALPASTSTERLDLLDDARRAFGFTITGGEHRLANYRSVTTVSELAPAAPAKICTVVLESYVVDVPEGNSEEDTRLFADTVVRLNLQKLKSLAEANATSAAAQATPPPQAE	700	1800	2800		
H6-SUMO-tagged FePYR1 H73P (protein) MEQQPAAAEPEVPAGLGLTAAEYAELQPTVEAYHRYAVGPGQCSSLVAQRIEAPAAAVWAIVRRFDCPQVYKPFIRSCALRPDPDAGDELRPGRLREVSVISGLPASTSTERLDLLDDARRAFGFTITGGEHRLANYRSVTTVSELAPAAPAKICTVVLESYVVDVPEGNSEEDTRLFADTVVRLNLQKLKSLAEANATSAAAQATPPPQAE				15000	2000
H6-SUMO-tagged FePYR1 F178A (protein) MEQQPAAAEPEVPAGLGLTAAEYAELQPTVEAYHRYAVGPGQCSSLVAQRIEAPAAAVWAIVRRFDCPQVYKHFIRSCALRPDPDAGDELRPGRLREVSVISGLPASTSTERLDLLDDARRAFGFTITGGEHRLANYRSVTTVSELAPAAPAKICTVVLESYVVDVPEGNSEEDTRLAADTVVRLNLQKLKSLAEANATSAAAQATPPPQAE			2500		
H6-SUMO-tagged FePYR1 I75A (protein) MEQQPAAAEPEVPAGLGLTAAEYAELQPTVEAYHRYAVGPGQCSSLVAQRIEAPAAAVWAIVRRFDCPQVYKHFARSCALRPDPDAGDELRPGRLREVSVISGLPASTSTERLDLLDDARRAFGFTITGGEHRLANYRSVTTVSELAPAAPAKICTVVLESYVVDVPEGNSEEDTRLFADTVVRLNLQKLKSLAEANATSAAAQATPPPQAE				9600	2600
